± gives the standard error. This sample holds only a part of the variants without activity.
B1: glmS ribozyme (parent)
chain: AUAAAAGCGCCAGAACUACAGAAAUGUAGUUGACGAGGAGGAGGUUUAUCGAAUUUUCGGCGGAUGCCUCCAAA

Legend:
Details in all cases: with glucosamine-6-phosphate
glucosamine-6-phosphate [1] = variants of: B1; test: self-cleavage kobs at 40 uM GlcN6P; higher = faster cleavage; RNA array
Outline: (§1)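 On sequenced MiSeq chips, barcoded ribozyme variants were made in situ by E. coli RNA polymerase and followed at 37 °C through a hybridised Cy3 probe. Glucosamine-6-phosphate was flowed in at 40 μM to 10 mM in HEPES/KCl/Mg(OAc)2 buffer. Exponential fits to normalised per-tile medians gave kobs, and weighted Michaelis–Menten fits gave kcat and KM.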

glucosamine-6-phosphate [2] = variants of: B1; test: self-cleavage kobs at 160 uM GlcN6P; higher = faster cleavage; RNA array
Outline: as §1

glucosamine-6-phosphate [3] = variants of: B1; test: self-cleavage kobs at 640 uM GlcN6P; higher = faster cleavage; RNA array
Outline: as §1

glucosamine-6-phosphate [4] = variants of: B1; test: self-cleavage kobs at 2500 uM GlcN6P; higher = faster cleavage; RNA array
Outline: as §1

glucosamine-6-phosphate [5] = variants of: B1; test: self-cleavage kobs at 10000 uM GlcN6P; higher = faster cleavage; RNA array
Outline: as §1

Variant	self-cleavage kobs at 40 uM GlcN6P (glucosamine-6-phosphate [1]) [s⁻¹]	self-cleavage kobs at 160 uM GlcN6P (glucosamine-6-phosphate [2]) [s⁻¹]	self-cleavage kobs at 640 uM GlcN6P (glucosamine-6-phosphate [3]) [s⁻¹]	self-cleavage kobs at 2500 uM GlcN6P (glucosamine-6-phosphate [4]) [s⁻¹]	self-cleavage kobs at 10000 uM GlcN6P (glucosamine-6-phosphate [5]) [s⁻¹]
C11U G41C	< 1e-05	< 1e-05			
G7A G41A	< 1e-05	< 1e-05	< 1e-05	< 1e-05	< 1e-05
C10U G44A G51U	< 1e-05				
G29C G62U	< 1e-05	< 1e-05			
G43C A53G	< 1e-05	< 1e-05	< 1e-05		
A12U C70A	8.79e-05 ± 1.1e-05	0.000177 ± 2.9e-05	0.00047 ± 5.2e-05	0.00049 ± 7e-05	0.00179 ± 0.00036
C16U G37A	7.36e-05 ± 1.1e-05	0.000108 ± 1.3e-05	0.000713 ± 7.9e-05	0.00123 ± 0.00015	0.00262 ± 0.00044
C11U G35A	< 1e-05	< 1e-05	< 1e-05	< 1e-05	< 1e-05
C11G G40A A42G C58U C67G C68A	0.00042 ± 9.3e-05				0.000191 ± 3.9e-05
C34G G51C	< 1e-05		< 1e-05		< 1e-05
C50G G63A C68A U69C	0.000106 ± 2.3e-05				0.000147 ± 2.8e-05
G7U G9A A14U C50G	0.000146 ± 5.4e-05	0.000138 ± 3.6e-05	0.000267 ± 5.8e-05	0.000647 ± 0.00016	0.000226 ± 5.3e-05
A42C U49A G63C	< 1e-05				
U56A U65G	3.75e-05 ± 1.4e-05		0.000348 ± 0.00011		0.00196 ± 0.00027
A53U U55A C67G	0.000155 ± 4.4e-05				0.00212 ± 0.00067
A6G U49G	< 1e-05			< 1e-05	
G43U C58G	< 1e-05	< 1e-05	< 1e-05	< 1e-05	< 1e-05
G43U C58U	< 1e-05	< 1e-05	< 1e-05		< 1e-05
A36C G43U	< 1e-05		< 1e-05	< 1e-05	< 1e-05
C16U G32U A48C G59C	< 1e-05				< 1e-05
C34A C50U	< 1e-05	< 1e-05	< 1e-05	< 1e-05	< 1e-05
C11U G29U C50U C71G	4.57e-05 ± 2.1e-05				

Variant	self-cleavage kobs at 40 uM GlcN6P (glucosamine-6-phosphate [1]) [s⁻¹]	self-cleavage kobs at 160 uM GlcN6P (glucosamine-6-phosphate [2]) [s⁻¹]	self-cleavage kobs at 640 uM GlcN6P (glucosamine-6-phosphate [3]) [s⁻¹]	self-cleavage kobs at 2500 uM GlcN6P (glucosamine-6-phosphate [4]) [s⁻¹]	self-cleavage kobs at 10000 uM GlcN6P (glucosamine-6-phosphate [5]) [s⁻¹]
G44C U69G	< 1e-05			< 1e-05	< 1e-05
G13A A14U C50G C68U	8.53e-05 ± 1.7e-05		0.000187 ± 4.7e-05	0.000455 ± 0.00016	0.000103 ± 1.5e-05
G7C C50U	< 1e-05	< 1e-05	< 1e-05	< 1e-05	
G35C U45C C67G C68A	0.00152 ± 0.00042				0.000566 ± 0.00018
G7A G51U	< 1e-05	< 1e-05	< 1e-05	< 1e-05	
G9C C71U	< 1e-05	< 1e-05	< 1e-05	< 1e-05	< 1e-05
A42U U54C U55C	< 1e-05			5.79e-05 ± 1.6e-05	8.78e-05 ± 1.3e-05
G7C G51A	< 1e-05	< 1e-05	< 1e-05		< 1e-05
G29U G32A U65G G66A	< 1e-05				4.66e-05 ± 1.9e-05
A36C G41U G51A G60U	< 1e-05		< 1e-05	< 1e-05	
G62U C70A	< 1e-05				
C8G A64C	< 1e-05	< 1e-05		< 1e-05	< 1e-05
A15U A52U G66C	< 1e-05	< 1e-05			
C10U G44A	< 1e-05	< 1e-05	< 1e-05		< 1e-05
G38U U54G	< 1e-05				
A15G U49G	4.65e-05 ± 2e-05	0.000118 ± 3.1e-05	0.000228 ± 4.3e-05	0.000499 ± 0.0001	0.00148 ± 0.00024
C34A G60U C68A	< 1e-05		< 1e-05	< 1e-05	
A36U C61A C67U	5.22e-05 ± 2.3e-05				
G13C C16U C67A	< 1e-05				3.41e-05 ± 1.2e-05
C8G G59U	< 1e-05	< 1e-05	< 1e-05	< 1e-05	
C10G G13U A14U	< 1e-05				
G66A C70G	8.19e-05 ± 1.3e-05	7.92e-05 ± 2.2e-05	0.000305 ± 7.2e-05	0.000267 ± 7.7e-05	0.00273 ± 0.00055

Variant	self-cleavage kobs at 40 uM GlcN6P (glucosamine-6-phosphate [1]) [s⁻¹]	self-cleavage kobs at 160 uM GlcN6P (glucosamine-6-phosphate [2]) [s⁻¹]	self-cleavage kobs at 640 uM GlcN6P (glucosamine-6-phosphate [3]) [s⁻¹]	self-cleavage kobs at 2500 uM GlcN6P (glucosamine-6-phosphate [4]) [s⁻¹]	self-cleavage kobs at 10000 uM GlcN6P (glucosamine-6-phosphate [5]) [s⁻¹]
G38A G41A G63C	< 1e-05				
G9U A33G G38U G44U C58A	< 1e-05				
A33G U56A	< 1e-05	< 1e-05	< 1e-05		< 1e-05
G37C G41U G63C	< 1e-05				
G41U A48U C68A	< 1e-05			< 1e-05	
G9U A12U C70U	< 1e-05				
U56G C71A	8.72e-05 ± 1.6e-05	0.000152 ± 4.1e-05	0.000589 ± 0.00013	0.000518 ± 0.00011	0.00215 ± 0.0004
C16U G41A U56C	< 1e-05				3.75e-05 ± 1.4e-05
G44C G62A	< 1e-05	< 1e-05	< 1e-05	< 1e-05	< 1e-05
C11U C50G C68G	6.75e-05 ± 1.4e-05		0.000123 ± 1.8e-05	0.000141 ± 2.8e-05	
U31A G35C A36U	< 1e-05		< 1e-05		< 1e-05
A48G C61U G66C C70U	< 1e-05				
G35C A48G C50A	< 1e-05				
C10U A15C G43U C50U U57G G59A	< 1e-05	< 1e-05	< 1e-05	< 1e-05	< 1e-05
G9A C10U A14U U31C G40C C70A	< 1e-05				< 1e-05
C34U U55C	< 1e-05	< 1e-05	< 1e-05	< 1e-05	< 1e-05
G13U U56A G59U	< 1e-05				
A12U G13U G43A	< 1e-05				< 1e-05
C8U A64U	< 1e-05	< 1e-05	< 1e-05	< 1e-05	< 1e-05
G9U G41U	< 1e-05	< 1e-05	< 1e-05	< 1e-05	< 1e-05
C11G G41C	< 1e-05	< 1e-05	< 1e-05	< 1e-05	
A48U A52G G63A	< 1e-05				< 1e-05

Variant	self-cleavage kobs at 40 uM GlcN6P (glucosamine-6-phosphate [1]) [s⁻¹]	self-cleavage kobs at 160 uM GlcN6P (glucosamine-6-phosphate [2]) [s⁻¹]	self-cleavage kobs at 640 uM GlcN6P (glucosamine-6-phosphate [3]) [s⁻¹]	self-cleavage kobs at 2500 uM GlcN6P (glucosamine-6-phosphate [4]) [s⁻¹]	self-cleavage kobs at 10000 uM GlcN6P (glucosamine-6-phosphate [5]) [s⁻¹]
G41U U57G	< 1e-05	< 1e-05	< 1e-05		
C10A A36C	< 1e-05		< 1e-05	< 1e-05	< 1e-05
G7C C11U C61A C70G	< 1e-05			< 1e-05	
U31C C68A	< 1e-05				< 1e-05
C10U G62A	< 1e-05		< 1e-05		< 1e-05
A48G C50G C61G	0.000172 ± 6.6e-05				0.000127 ± 3.7e-05
G51A U65A	< 1e-05			< 1e-05	< 1e-05
U56C G62C	< 1e-05		< 1e-05		< 1e-05
G32C G51A G66A	< 1e-05		< 1e-05	< 1e-05	< 1e-05
G7U U56A	< 1e-05	< 1e-05	< 1e-05		< 1e-05
U31C G60A	< 1e-05		< 1e-05		< 1e-05
G38C U65G	< 1e-05	< 1e-05	< 1e-05		
C8U C11U U57G C67G	0.000617 ± 0.0003		7.99e-05 ± 3.8e-05		0.000608 ± 0.00023
C8U A14U G29C U46A G51A	< 1e-05				< 1e-05
A6C G60U	< 1e-05	< 1e-05	< 1e-05	< 1e-05	< 1e-05
U46G G66C	0.000227 ± 3.8e-05	0.000418 ± 0.00013	0.00135 ± 0.00038	0.00594 ± 0.0017	
U31C G51U	< 1e-05				< 1e-05
U31C G51C	< 1e-05			< 1e-05	< 1e-05
A6U G40C	< 1e-05				
G35A C61G U65G C67A U69G	6.66e-05 ± 2.3e-05				
A15U G59C	< 1e-05	< 1e-05	< 1e-05	< 1e-05	< 1e-05

Reference: the supplement of paper PMC7125110
